Test results published in the supplement of paper PMC9112550, “Optimization of the antimicrobial peptide Bac7 by deep mutational scanning” (BMC Biology, 2022).

Test system: Escherichia coli TOP10
Test: shrunken log2 fold change of peptide-encoding DNA abundance (4.5 h post-induction vs induction); higher = less antimicrobial activity (less host growth inhibition)
Conditions: time post-induction: 4.5 h; library: site-saturation at positions 5, 18, 19, 20
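Note: peptides expressed intracellularly from a pBAD plasmid library in pooled LB shake-flask culture, induced with 0.3% L-arabinose, DNA abundance read by NGS, three biological replicates, DESeq2 with apeglm shrinkage.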

Sequence | shrunken log2 fold change
RRIRSRPPRLPRPRPRPIPNPRP | -0.432
RRIRYRPPRLPRPRPRPHQFPRP | -0.984
RRIRIRPPRLPRPRPRPKMDPRP | 0.0209
RRIRVRPPRLPRPRPRPSWRPRP | -0.0696
RRIRSRPPRLPRPRPRPSTIPRP | -0.482
RRIRVRPPRLPRPRPRPTANPRP | 0.221
RRIRVRPPRLPRPRPRPCIIPRP | -0.0793
RRIRIRPPRLPRPRPRPNYDPRP | -0.638
RRIRVRPPRLPRPRPRPNCYPRP | -0.411
RRIRRRPPRLPRPRPRPLDYPRP | -0.324
RRIRCRPPRLPRPRPRPGWDPRP | 0.257
RRIRNRPPRLPRPRPRPGEEPRP | -0.0107
RRIRFRPPRLPRPRPRPFWVPRP | -0.0435
RRIRCRPPRLPRPRPRPNKMPRP | -0.393
RRIRKRPPRLPRPRPRPMMDPRP | 0.0443
RRIRYRPPRLPRPRPRPPHMPRP | -0.656
RRIRWRPPRLPRPRPRPKSPPRP | 0.819
RRIRTRPPRLPRPRPRPHVEPRP | 0.0236
RRIRARPPRLPRPRPRPWNFPRP | -0.123
RRIRDRPPRLPRPRPRPCDFPRP | 0.0384
RRIRMRPPRLPRPRPRPAMQPRP | 0.404
RRIRRRPPRLPRPRPRPGCIPRP | 0.0498
RRIRVRPPRLPRPRPRPTAYPRP | -0.094
RRIRLRPPRLPRPRPRPHGVPRP | -0.0127
RRIRPRPPRLPRPRPRPSCSPRP | -0.538
RRIRRRPPRLPRPRPRPTCRPRP | 0.41
RRIRYRPPRLPRPRPRPNVRPRP | -0.0227
RRIRERPPRLPRPRPRPNSFPRP | -0.249
RRIRQRPPRLPRPRPRPMVPPRP | -0.0191
